Data on two molecules can be found in US20240383990A1.

This experiment concerns the target ALK1 / BMPRII receptor pair (BMPR Type I receptor ALK1 and BMPR Type II receptor BMPRII) on cells (UniProt P37023). As to the kind of experiment: cell-based or functional assay.

Chain of ALK1 / BMPRII receptor pair (BMPR Type I receptor ALK1 and BMPR Type II receptor BMPRII) on cells (P37023 22-503 limits assumed, chain 1 of 2): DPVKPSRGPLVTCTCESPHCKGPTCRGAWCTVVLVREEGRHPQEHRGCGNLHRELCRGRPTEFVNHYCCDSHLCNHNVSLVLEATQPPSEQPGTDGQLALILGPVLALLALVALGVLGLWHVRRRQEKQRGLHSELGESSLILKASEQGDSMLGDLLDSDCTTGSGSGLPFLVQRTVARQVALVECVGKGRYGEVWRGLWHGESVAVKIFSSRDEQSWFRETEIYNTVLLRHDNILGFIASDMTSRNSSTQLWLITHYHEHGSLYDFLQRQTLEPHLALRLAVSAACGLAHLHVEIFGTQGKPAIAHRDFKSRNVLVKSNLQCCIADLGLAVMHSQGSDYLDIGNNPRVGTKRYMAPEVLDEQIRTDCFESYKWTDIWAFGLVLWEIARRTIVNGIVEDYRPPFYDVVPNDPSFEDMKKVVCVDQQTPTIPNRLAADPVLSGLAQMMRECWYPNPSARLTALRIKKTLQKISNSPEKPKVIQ
Chain of ALK1 / BMPRII receptor pair (BMPR Type I receptor ALK1 and BMPR Type II receptor BMPRII) on cells (Q13873 27-1038 limits assumed, chain 2 of 2, further chain): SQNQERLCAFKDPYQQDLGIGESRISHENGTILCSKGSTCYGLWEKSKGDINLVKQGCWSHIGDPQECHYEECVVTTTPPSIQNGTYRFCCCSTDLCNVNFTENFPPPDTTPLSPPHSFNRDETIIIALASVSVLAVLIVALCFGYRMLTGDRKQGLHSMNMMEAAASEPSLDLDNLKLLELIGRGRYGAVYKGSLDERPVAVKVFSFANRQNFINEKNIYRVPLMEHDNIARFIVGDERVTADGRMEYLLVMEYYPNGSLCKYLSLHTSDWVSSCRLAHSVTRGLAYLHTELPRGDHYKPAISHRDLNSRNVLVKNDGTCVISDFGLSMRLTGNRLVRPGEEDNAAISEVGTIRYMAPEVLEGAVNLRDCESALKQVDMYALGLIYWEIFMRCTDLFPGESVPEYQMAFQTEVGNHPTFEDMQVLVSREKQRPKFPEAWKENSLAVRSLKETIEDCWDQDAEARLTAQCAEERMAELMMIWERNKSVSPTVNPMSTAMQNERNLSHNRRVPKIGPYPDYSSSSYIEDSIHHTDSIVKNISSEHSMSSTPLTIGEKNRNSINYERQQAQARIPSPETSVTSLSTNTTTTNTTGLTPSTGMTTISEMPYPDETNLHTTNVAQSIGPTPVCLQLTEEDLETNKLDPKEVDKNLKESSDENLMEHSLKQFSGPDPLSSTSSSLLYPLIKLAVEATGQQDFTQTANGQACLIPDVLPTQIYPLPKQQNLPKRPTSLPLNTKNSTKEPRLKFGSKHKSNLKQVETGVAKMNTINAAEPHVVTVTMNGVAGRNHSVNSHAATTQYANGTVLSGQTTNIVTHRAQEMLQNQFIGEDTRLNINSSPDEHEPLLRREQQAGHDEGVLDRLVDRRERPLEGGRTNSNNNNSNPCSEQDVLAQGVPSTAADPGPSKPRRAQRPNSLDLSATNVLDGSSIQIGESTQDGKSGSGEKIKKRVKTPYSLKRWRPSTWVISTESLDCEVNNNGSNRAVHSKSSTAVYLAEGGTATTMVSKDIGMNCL

B1: BMP9 (ligand, UniProt Q9UK05 320-429, looked up)
chain: SAGAGSHCQKTSLRVNFEDIGWDSWIIAPKEYEAYECKGGCFFPLADDVTPTKHAIVQTLVHLKFPTKVGKACCVPTKLSPISVLYKDDMGVPTLKYHYEGMSVAECGCR
In the case of B1, the Agonist activity, % Emax BMP9 came out at 100 % Emax BMP9; the Agonist activity, EC50 stood at 0.02 nM; the Agonist activity, EMAX (RLU) stood at 2.64e+06 RLU; the pSMAD1 ELISA in HUVEC, RLU 15 minutes, at 0 nM (baseline) came to 4.9 RLU. The molecule further had a pSMAD1 ELISA in HUVEC, RLU 15 minutes, at 0.04 nM of 101 RLU; a pSMAD1 ELISA in HUVEC, RLU 15 minutes, at 0.2 nM of 102 RLU; a pSMAD1 ELISA in HUVEC, RLU 15 minutes, at 1 nM of 106 RLU; a pSMAD1 ELISA in HUVEC, RLU 60 minutes, at 0 nM (baseline) of 6.1 RLU. The pSMAD1 ELISA in HUVEC, RLU 60 minutes, at 0.04 nM was found to be 81.8 RLU; the pSMAD1 ELISA in HUVEC, RLU 60 minutes, at 0.2 nM was 83.2 RLU; the pSMAD1 ELISA in HUVEC, RLU 60 minutes, at 1 nM worked out at 81.8 RLU.

B2: BMP10 (ligand, UniProt O95393 317-424, looked up)
chain: NAKGNYCKRTPLYIDFKEIGWDSWIIAPPGYEAYECRGVCNYPLAEHLTPTKHAIIQALVHLKNSQKASKACCVPTKLEPISILYLDKGVVTYKFKYEGMAVSECGCR
B2 came in with an Agonist activity, % Emax BMP9 of 97 % Emax BMP9; an Agonist activity, EC50 of 0.1 nM; an Agonist activity, EMAX (RLU) of 2.57e+06 RLU.
